Test results reported in patent US12679878B2, “CRF2 receptor agonists and their use in therapy” (SANOFI, priority 2020, dated 2026).
Starred links: 1 amine or outer side, 2 acyl side, 3 side chain; linkers in the order of their positions; H or OH if unused. Groups on a side chain read outwards from the residue. No end group written: not given here. *: point of attachment. C18 diacid = O=C(O)CCCCCCCCCCCCCCCCC(=O)*; γGlu = O=C(O)[C@H](CCC(=O)[*:2])N[*:1]; AEEA = NCCOCCOCC(=O)O

B1: SEQ ID NO: 52 (peptide)
peptide: FTLSLDVPTKIK([AEEA-AEEA-γGlu-C18 diacid])QILLKQQKQKKERQQAEKNKQLLERV-NH2
modifications: N-terminus assumed
SMILES: CC[C@H](C)[C@H](NC(=O)[C@H](CCC(N)=O)NC(=O)[C@H](CCCCNC(=O)COCCOCCNC(=O)COCCOCCNC(=O)CC[C@H](NC(=O)CCCCCCCCCCCCCCCCC(=O)O)C(=O)O)NC(=O)[C@@H](NC(=O)[C@H](CCCCN)NC(=O)[C@@H](NC(=O)[C@@H]1CCCN1C(=O)[C@@H](NC(=O)[C@H](CC(=O)O)NC(=O)[C@H](CC(C)C)NC(=O)[C@H](CO)NC(=O)[C@H](CC(C)C)NC(=O)[C@@H](NC(=O)[C@@H](N)Cc1ccccc1)[C@@H](C)O)C(C)C)[C@@H](C)O)[C@@H](C)CC)C(=O)N[C@@H](CC(C)C)C(=O)N[C@@H](CC(C)C)C(=O)N[C@@H](CCCCN)C(=O)N[C@@H](CCC(N)=O)C(=O)N[C@@H](CCC(N)=O)C(=O)N[C@@H](CCCCN)C(=O)N[C@@H](CCC(N)=O)C(=O)N[C@@H](CCCCN)C(=O)N[C@@H](CCCCN)C(=O)N[C@@H](CCC(=O)O)C(=O)N[C@@H](CCCNC(=N)N)C(=O)N[C@@H](CCC(N)=O)C(=O)N[C@@H](CCC(N)=O)C(=O)N[C@@H](C)C(=O)N[C@@H](CCC(=O)O)C(=O)N[C@@H](CCCCN)C(=O)N[C@@H](CC(N)=O)C(=O)N[C@@H](CCCCN)C(=O)N[C@@H](CCC(N)=O)C(=O)N[C@@H](CC(C)C)C(=O)N[C@@H](CC(C)C)C(=O)N[C@@H](CCC(=O)O)C(=O)N[C@@H](CCCNC(=N)N)C(=O)N[C@H](C(N)=O)C(C)C
B2: SEQ ID NO: 55 (peptide)
peptide: FTLSLDVPTKIK([AEEA-AEEA-γGlu-C18 diacid])QILLKQQKQKKERQKAETNVQLLERV-NH2
modifications: N-terminus assumed
SMILES: CC[C@H](C)[C@H](NC(=O)[C@H](CCC(N)=O)NC(=O)[C@H](CCCCNC(=O)COCCOCCNC(=O)COCCOCCNC(=O)CC[C@H](NC(=O)CCCCCCCCCCCCCCCCC(=O)O)C(=O)O)NC(=O)[C@@H](NC(=O)[C@H](CCCCN)NC(=O)[C@@H](NC(=O)[C@@H]1CCCN1C(=O)[C@@H](NC(=O)[C@H](CC(=O)O)NC(=O)[C@H](CC(C)C)NC(=O)[C@H](CO)NC(=O)[C@H](CC(C)C)NC(=O)[C@@H](NC(=O)[C@@H](N)Cc1ccccc1)[C@@H](C)O)C(C)C)[C@@H](C)O)[C@@H](C)CC)C(=O)N[C@@H](CC(C)C)C(=O)N[C@@H](CC(C)C)C(=O)N[C@@H](CCCCN)C(=O)N[C@@H](CCC(N)=O)C(=O)N[C@@H](CCC(N)=O)C(=O)N[C@@H](CCCCN)C(=O)N[C@@H](CCC(N)=O)C(=O)N[C@@H](CCCCN)C(=O)N[C@@H](CCCCN)C(=O)N[C@@H](CCC(=O)O)C(=O)N[C@@H](CCCNC(=N)N)C(=O)N[C@@H](CCC(N)=O)C(=O)N[C@@H](CCCCN)C(=O)N[C@@H](C)C(=O)N[C@@H](CCC(=O)O)C(=O)N[C@H](C(=O)N[C@@H](CC(N)=O)C(=O)N[C@H](C(=O)N[C@@H](CCC(N)=O)C(=O)N[C@@H](CC(C)C)C(=O)N[C@@H](CC(C)C)C(=O)N[C@@H](CCC(=O)O)C(=O)N[C@@H](CCCNC(=N)N)C(=O)N[C@H](C(N)=O)C(C)C)C(C)C)[C@@H](C)O
B3: SEQ ID NO: 53 (peptide)
peptide: FTLSLDVPTKIK([AEEA-AEEA-γGlu-C18 diacid])QILLKQQKQKKERQQAETNKQLLERV-NH2
modifications: N-terminus assumed
SMILES: CC[C@H](C)[C@H](NC(=O)[C@H](CCC(N)=O)NC(=O)[C@H](CCCCNC(=O)COCCOCCNC(=O)COCCOCCNC(=O)CC[C@H](NC(=O)CCCCCCCCCCCCCCCCC(=O)O)C(=O)O)NC(=O)[C@@H](NC(=O)[C@H](CCCCN)NC(=O)[C@@H](NC(=O)[C@@H]1CCCN1C(=O)[C@@H](NC(=O)[C@H](CC(=O)O)NC(=O)[C@H](CC(C)C)NC(=O)[C@H](CO)NC(=O)[C@H](CC(C)C)NC(=O)[C@@H](NC(=O)[C@@H](N)Cc1ccccc1)[C@@H](C)O)C(C)C)[C@@H](C)O)[C@@H](C)CC)C(=O)N[C@@H](CC(C)C)C(=O)N[C@@H](CC(C)C)C(=O)N[C@@H](CCCCN)C(=O)N[C@@H](CCC(N)=O)C(=O)N[C@@H](CCC(N)=O)C(=O)N[C@@H](CCCCN)C(=O)N[C@@H](CCC(N)=O)C(=O)N[C@@H](CCCCN)C(=O)N[C@@H](CCCCN)C(=O)N[C@@H](CCC(=O)O)C(=O)N[C@@H](CCCNC(=N)N)C(=O)N[C@@H](CCC(N)=O)C(=O)N[C@@H](CCC(N)=O)C(=O)N[C@@H](C)C(=O)N[C@@H](CCC(=O)O)C(=O)N[C@H](C(=O)N[C@@H](CC(N)=O)C(=O)N[C@@H](CCCCN)C(=O)N[C@@H](CCC(N)=O)C(=O)N[C@@H](CC(C)C)C(=O)N[C@@H](CC(C)C)C(=O)N[C@@H](CCC(=O)O)C(=O)N[C@@H](CCCNC(=N)N)C(=O)N[C@H](C(N)=O)C(C)C)[C@@H](C)O
B4: SEQ ID NO: 54 (peptide)
peptide: FTLSLDVPIKLK([AEEA-AEEA-γGlu-C18 diacid])QILLKQQKQKKERQQAETNVQLLERV-NH2
modifications: N-terminus assumed
SMILES: CC[C@H](C)[C@H](NC(=O)[C@H](CCC(N)=O)NC(=O)[C@H](CCCCNC(=O)COCCOCCNC(=O)COCCOCCNC(=O)CC[C@H](NC(=O)CCCCCCCCCCCCCCCCC(=O)O)C(=O)O)NC(=O)[C@H](CC(C)C)NC(=O)[C@H](CCCCN)NC(=O)[C@@H](NC(=O)[C@@H]1CCCN1C(=O)[C@@H](NC(=O)[C@H](CC(=O)O)NC(=O)[C@H](CC(C)C)NC(=O)[C@H](CO)NC(=O)[C@H](CC(C)C)NC(=O)[C@@H](NC(=O)[C@@H](N)Cc1ccccc1)[C@@H](C)O)C(C)C)[C@@H](C)CC)C(=O)N[C@@H](CC(C)C)C(=O)N[C@@H](CC(C)C)C(=O)N[C@@H](CCCCN)C(=O)N[C@@H](CCC(N)=O)C(=O)N[C@@H](CCC(N)=O)C(=O)N[C@@H](CCCCN)C(=O)N[C@@H](CCC(N)=O)C(=O)N[C@@H](CCCCN)C(=O)N[C@@H](CCCCN)C(=O)N[C@@H](CCC(=O)O)C(=O)N[C@@H](CCCNC(=N)N)C(=O)N[C@@H](CCC(N)=O)C(=O)N[C@@H](CCC(N)=O)C(=O)N[C@@H](C)C(=O)N[C@@H](CCC(=O)O)C(=O)N[C@H](C(=O)N[C@@H](CC(N)=O)C(=O)N[C@H](C(=O)N[C@@H](CCC(N)=O)C(=O)N[C@@H](CC(C)C)C(=O)N[C@@H](CC(C)C)C(=O)N[C@@H](CCC(=O)O)C(=O)N[C@@H](CCCNC(=N)N)C(=O)N[C@H](C(N)=O)C(C)C)C(C)C)[C@@H](C)O

Biological target: human corticotropin-releasing factor 2α (CRF2 α receptor) (human), Q13324
Experiment: cell-based or functional assay

Sequence of human corticotropin-releasing factor 2α (CRF2 α receptor) (human), Q13324 (Q13324 20-411): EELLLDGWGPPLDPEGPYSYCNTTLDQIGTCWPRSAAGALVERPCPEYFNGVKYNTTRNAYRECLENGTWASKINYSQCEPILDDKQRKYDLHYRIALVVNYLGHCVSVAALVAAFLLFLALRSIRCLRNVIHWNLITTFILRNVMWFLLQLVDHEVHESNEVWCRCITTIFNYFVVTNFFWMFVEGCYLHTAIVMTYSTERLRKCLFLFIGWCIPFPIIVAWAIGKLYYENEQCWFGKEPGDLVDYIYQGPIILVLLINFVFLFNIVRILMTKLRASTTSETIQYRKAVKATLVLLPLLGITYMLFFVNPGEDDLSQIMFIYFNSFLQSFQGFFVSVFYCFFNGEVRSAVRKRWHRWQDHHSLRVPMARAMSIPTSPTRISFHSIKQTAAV

Binder	EC50 [nM], 0% HSA [nM]	EC50 [nM], 0.1% HSA [nM]
B1	0.7	45.8
B2	48.5	–
B3	1.01	55.1
B4	0.57	24.5
